Assay in all cases: ELISA; recombinant Ang1 or Ang2 immobilised on Maxisorp plates, blocked with TBS, 0.1% Triton-X100, 5% milk powder; Tie2 ectodomain proteins bound for 1 h; detected with anti-Tie2 ectodomain antibodies; EC50 = concentration of ectodomain for 50% of maximal binding
Settings in all cases: both partners purified

In assay [1] the target is T1, Angiopoietin-2 (UniProt O15123 19-496).
T1 construct: recombinant Ang2; the residue numbers printed for Ang2 (Asp448, Phe469, Ser480) come from the cited structure 2GY7; also called Ang2; source: recombinant
T1 sequence (looked up): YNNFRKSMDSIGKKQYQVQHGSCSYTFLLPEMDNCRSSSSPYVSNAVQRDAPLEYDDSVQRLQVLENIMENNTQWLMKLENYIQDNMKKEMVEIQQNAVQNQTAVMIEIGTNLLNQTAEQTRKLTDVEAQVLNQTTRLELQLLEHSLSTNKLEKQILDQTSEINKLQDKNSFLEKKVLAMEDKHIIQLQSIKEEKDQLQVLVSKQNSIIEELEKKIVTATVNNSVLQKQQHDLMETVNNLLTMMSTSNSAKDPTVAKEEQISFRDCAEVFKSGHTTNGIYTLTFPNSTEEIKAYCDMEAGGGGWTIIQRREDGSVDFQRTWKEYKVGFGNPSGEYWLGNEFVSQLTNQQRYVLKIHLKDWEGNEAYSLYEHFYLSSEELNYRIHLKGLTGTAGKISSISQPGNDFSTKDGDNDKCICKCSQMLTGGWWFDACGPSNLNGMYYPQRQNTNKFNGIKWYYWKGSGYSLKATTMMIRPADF

Assay [2] addresses T2, Angiopoietin-1 (UniProt Q15389 16-498).
T2 construct: recombinant Ang1; the residue numbers printed for Ang1 (Gln415, Asp450, Leu471, Tyr478) come from the cited structure 4K0V; also called Ang1; source: recombinant
T2 sequence (looked up): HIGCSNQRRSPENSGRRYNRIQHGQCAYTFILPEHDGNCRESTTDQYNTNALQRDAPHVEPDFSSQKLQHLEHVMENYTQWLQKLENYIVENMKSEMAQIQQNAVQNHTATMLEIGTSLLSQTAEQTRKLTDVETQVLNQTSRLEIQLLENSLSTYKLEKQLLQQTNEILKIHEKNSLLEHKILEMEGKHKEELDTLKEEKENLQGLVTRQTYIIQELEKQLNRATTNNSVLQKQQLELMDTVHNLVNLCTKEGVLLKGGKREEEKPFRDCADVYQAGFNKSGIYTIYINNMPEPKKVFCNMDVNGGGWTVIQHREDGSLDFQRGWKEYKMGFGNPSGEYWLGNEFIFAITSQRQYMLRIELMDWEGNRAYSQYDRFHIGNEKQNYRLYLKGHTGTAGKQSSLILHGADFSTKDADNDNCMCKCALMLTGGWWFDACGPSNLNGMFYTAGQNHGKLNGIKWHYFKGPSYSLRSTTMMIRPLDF

Assay [3] deals with T1, Angiopoietin-2. The source holds these as a separate data set.

This is an account of results in publication PMC8294587, “Intrinsic differences in the mechanisms of Tie2 binding to angiopoietins exploited by directed evolution to create an Ang2-selective ligand trap” (The Journal of Biological Chemistry, 2021).

A word on the EC50: it is the concentration that produces a half-maximal response.

B1: Tie2 ectodomain-Fc E169A (Fc fusion, human, UniProt Q02763 23-442, looked up)
chain: AMDLILINSLPLVSDAETSLTCIASGWRPHEPITIGRDFEALMNQHQDPLEVTQDVTREWAKKVVWKREKASKINGAYFCEGRVRGEAIRIRTMKMRQQASFLPATLTMTVDKGDNVNISFKKVLIKEEDAVIYKNGSFIHSVPRHAVPDILEVHLPHAQPQDAGVYSARYIGGNLFTSAFTRLIVRRCEAQKWGPECNHLCTACMNNGVCHEDTGECICPPGFMGRTCEKACELHTFGRTCKERCSGQEGCKSYVFCLPDPYGCSCATGWKGLQCNEACHPGFYGPDCKLRCSCNNGEMCDRFQGCLCSPGWQGLQCEREGIQRMTPKIVDLPDHIEVNSGKFNPICKASGWPLPTNEEMTLVKPDGTVLHPKDFNHTDHFSVAIFTIHRILPPDSGVWVCSVNTVAGMVEKPFNISVK
notes: signal peptide in the construct; Tie2 ectodomain, human, residues 1-442; also called Glu169Ala; source: Hek293, transfected, purified from culture medium (nickel chromatography); not shown: Fc (fragment of human Fc immunoglobulin domain, after a GS4 linker), C-terminal, kept
As to B1, the EC50 in assay [1] is 3.94 nM; in assay [2], 9 nM.

B2: Tie2 ectodomain-Fc I162A (Fc fusion, human, UniProt Q02763 23-442, looked up)
chain: AMDLILINSLPLVSDAETSLTCIASGWRPHEPITIGRDFEALMNQHQDPLEVTQDVTREWAKKVVWKREKASKINGAYFCEGRVRGEAIRIRTMKMRQQASFLPATLTMTVDKGDNVNISFKKVLIKEEDAVIYKNGSFAHSVPRHEVPDILEVHLPHAQPQDAGVYSARYIGGNLFTSAFTRLIVRRCEAQKWGPECNHLCTACMNNGVCHEDTGECICPPGFMGRTCEKACELHTFGRTCKERCSGQEGCKSYVFCLPDPYGCSCATGWKGLQCNEACHPGFYGPDCKLRCSCNNGEMCDRFQGCLCSPGWQGLQCEREGIQRMTPKIVDLPDHIEVNSGKFNPICKASGWPLPTNEEMTLVKPDGTVLHPKDFNHTDHFSVAIFTIHRILPPDSGVWVCSVNTVAGMVEKPFNISVK
notes: signal peptide in the construct; Tie2 ectodomain, human, residues 1-442; source: Hek293, transfected, purified from culture medium (nickel chromatography); not shown: Fc (fragment of human Fc immunoglobulin domain, after a GS4 linker), C-terminal, kept
Consider B2, for which the EC50 in assay [1] amounted to 23.1 nM; in assay [2], 6.38 nM.

B3: Tie2 ectodomain-Fc V165A (Fc fusion, human, UniProt Q02763 23-442, looked up)
chain: AMDLILINSLPLVSDAETSLTCIASGWRPHEPITIGRDFEALMNQHQDPLEVTQDVTREWAKKVVWKREKASKINGAYFCEGRVRGEAIRIRTMKMRQQASFLPATLTMTVDKGDNVNISFKKVLIKEEDAVIYKNGSFIHSAPRHEVPDILEVHLPHAQPQDAGVYSARYIGGNLFTSAFTRLIVRRCEAQKWGPECNHLCTACMNNGVCHEDTGECICPPGFMGRTCEKACELHTFGRTCKERCSGQEGCKSYVFCLPDPYGCSCATGWKGLQCNEACHPGFYGPDCKLRCSCNNGEMCDRFQGCLCSPGWQGLQCEREGIQRMTPKIVDLPDHIEVNSGKFNPICKASGWPLPTNEEMTLVKPDGTVLHPKDFNHTDHFSVAIFTIHRILPPDSGVWVCSVNTVAGMVEKPFNISVK
notes: as for B2
In the case of B3, the EC50 amounted to 77.7 nM in assay [1] and 14.3 nM in assay [2].

B4: Tie2 ectodomain-Fc Arg167Ala/His168Ala/Glu169Ala (Fc fusion, human, UniProt Q02763 23-442, looked up)
chain: AMDLILINSLPLVSDAETSLTCIASGWRPHEPITIGRDFEALMNQHQDPLEVTQDVTREWAKKVVWKREKASKINGAYFCEGRVRGEAIRIRTMKMRQQASFLPATLTMTVDKGDNVNISFKKVLIKEEDAVIYKNGSFIHSVPAAAVPDILEVHLPHAQPQDAGVYSARYIGGNLFTSAFTRLIVRRCEAQKWGPECNHLCTACMNNGVCHEDTGECICPPGFMGRTCEKACELHTFGRTCKERCSGQEGCKSYVFCLPDPYGCSCATGWKGLQCNEACHPGFYGPDCKLRCSCNNGEMCDRFQGCLCSPGWQGLQCEREGIQRMTPKIVDLPDHIEVNSGKFNPICKASGWPLPTNEEMTLVKPDGTVLHPKDFNHTDHFSVAIFTIHRILPPDSGVWVCSVNTVAGMVEKPFNISVK
notes: signal peptide in the construct; Tie2 ectodomain, human, residues 1-442; also called triple alanine substitution of Arg167, His168 and Glu169; source: Hek293, transfected, purified from culture medium (nickel chromatography); not shown: Fc (fragment of human Fc immunoglobulin domain, after a GS4 linker), C-terminal, kept
Turning to B4, the binding result in assay [3] was “binds”.

B5: R5 Tie2 ectodomain-Fc (Phe161Ile, deletion of Arg167 and His168, Ser164Leu, Pro171Ser) (Fc fusion, human, UniProt Q02763 23-442, looked up)
chain: AMDLILINSLPLVSDAETSLTCIASGWRPHEPITIGRDFEALMNQHQDPLEVTQDVTREWAKKVVWKREKASKINGAYFCEGRVRGEAIRIRTMKMRQQASFLPATLTMTVDKGDNVNISFKKVLIKEEDAVIYKNGSIIHLVPEVSDILEVHLPHAQPQDAGVYSARYIGGNLFTSAFTRLIVRRCEAQKWGPECNHLCTACMNNGVCHEDTGECICPPGFMGRTCEKACELHTFGRTCKERCSGQEGCKSYVFCLPDPYGCSCATGWKGLQCNEACHPGFYGPDCKLRCSCNNGEMCDRFQGCLCSPGWQGLQCEREGIQRMTPKIVDLPDHIEVNSGKFNPICKASGWPLPTNEEMTLVKPDGTVLHPKDFNHTDHFSVAIFTIHRILPPDSGVWVCSVNTVAGMVEKPFNISVK
notes: signal peptide in the construct; Tie2 ectodomain, human, residues 1-442, variant from directed evolution; also called R5-Fc; evolved ectodomain; source: Hek293, transfected, purified from culture medium (nickel chromatography); not shown: Fc (fragment of human Fc immunoglobulin domain, after a GS4 linker), C-terminal, kept
Consider B5, for which the EC50 in assay [3] worked out at 3.4 nM.
